# B1: zyxin: focal adhesion protein transiently overexpressed in Srf(−/−) ES cells (protein, UniProt Q15942 2-572, looked up)
# Zyxin: AAPRPSPAISVSVSAPAFYAPQKKFGPVVAPKPKVNPFRPGDSEPPPAPGAQRAQMGRVGEIPPPPPEDFPLPPPPLAGDGDDAEGALGGAFPPPPPPIEESFPPAPLEEEIFPSPPPPPEEEGGPEAPIPPPPQPREKVSSIDLEIDSLSSLLDDMTKNDPFKARVSSGYVPPPVATPFSSKSSTKPAAGGTAPLPPWKSPSSSQPLPQVPAPAQSQTQFHVQPQPQPKPQVQLHVQSQTQPVSLANTQPRGPPASSPAPAPKFSPVTPKFTPVASKFSPGAPGGSGSQPNQKLGHPEALSAGTGSPQPPSFTYAQQREKPRVQEKQHPVPPPAQNQNQVRSPGAPGPLTLKEVEELEQLTQQLMQDMEHPQRQNVAVNELCGRCHQPLARAQPAVRALGQLFHIACFTCHQCAQQLQGQQFYSLEGAPYCEGCYTDTLEKCNTCGEPITDRMLRATGKAYHPHCFTCVVCARPLEGTSFIVDQANRPHCVPDYHKQYAPRCSVCSEPIMPEPGRDETVRVVALDKNFHMKCYKCEDCGKPLSIEADDNGCFPLDGHVLCRKCHTARAQT
# B2: wildtype SRF protein: wildtype serum response factor reintroduced by expression vector (protein, UniProt P11831 1-508, looked up)
# Serum response factor: MLPTQAGAAAALGRGSALGGSLNRTPTGRPGGGGGTRGANGGRVPGNGAGLGPGRLEREAAAAAATTPAPTAGALYSGSEGDSESGEEEELGAERRGLKRSLSEMEIGMVVGGPEASAAATGGYGPVSGAVSGAKPGKKTRGRVKIKMEFIDNKLRRYTTFSKRKTGIMKKAYELSTLTGTQVLLLVASETGHVYTFATRKLQPMITSETGKALIQTCLNSPDSPPRSDPTTDQRMSATGFEETDLTYQVSESDSSGETKDTLKPAFTVTNLPGTTSTIQTAPSTSTTMQVSSGPSFPITNYLAPVSASVSPSAVSSANGTVLKSTGSGPVSSGGLMQLPTSFTLMPGGAVAQQVPVQAIQVHQAPQQASPSRDSSTDLTQTSSSGTVTLPATIMTSSVPTTVGGHMMYPSPHAVMYAPTSGLGDGSLTVLNAFSQAPSTMQVSHSQVQEPGGVPQVFLTASSGTVQIPVSAVQLHQMAVIGQQAGSSSNLTELQVVNLDTAHSTKSE
# What was measured:
# [1] = tested on: monolayer ES cells; experiment: In vitro differentiation of monolayer ES cells, RT-PCR of differentiation marker genes; assay type: cell-based, mouse; details: SRF-containing (Srf(−/+)) ES cells in monolayer, LIF withdrawal plus agent
# Procedure: In vitro differentiation conditions. For differentiation experiments, cells were seeded in monolayers on gelatin-coated dishes and kept overnight in complete medium. The first day after seeding was defined to be day 0 of differentiation. The medium was then exchanged by complete medium lacking LIF or complete medium without LIF, but containing either 0.8% dimethylsulfoxide (DMSO) or 5×10^−7 M all-trans RA, respectively. Medium was exchanged daily and cells were harvested at the indicated time points for RT-PCR analysis. The vitality was determined by trypan blue staining. The vitality of detached cells was less than 5%.
# Total RNA preparation (RNeasy kit, QUIAGEN) and first strand cDNA synthesis (Superscript II, Gibco) were done according to the manufacturers protocols. 1 μg of total RNA treated with DNAse I was used for reverse transcription. […] For quantitative analysis, SYBR Green PCR technology was used (Perkin Elmer). Real time detection of the PCR product was monitored by measuring the increase in fluorescence caused by the binding of SYBR Green to double-stranded DNA with ABI PRISM 7700 Sequence Detector. In order to do relative quantification, a threshold cycle (Ct), the cycle at which a statistically significant increase in fluorescence occurs, was derived from the resulting PCR profiles of each sample. […] The relative quantitation value is expressed as […]. […]
# [2] = tested on: Srf(−/−) ES cells; experiment: F-actin / stress fiber immunofluorescence and cell morphology after transient transfection of ES cells; assay type: cell-based, mouse
# Procedure: Alternatively, the cells were grown on gelatine-coated coverslips in complete growth medium for 48 hours, or as EBs in droplets for up to 8 days. The samples were then fixed in 4% formaldehyde and permeabilized in 0.2% Triton-X 100. Non-specific binding was blocked by incubating the cells for one hour in 1% BSA in PBS at 37° C. before staining with primary antibodies for 1 hour at 37° C. Incubation with fluorescence conjugated secondary antibodies (Molecular Probes, 1:200 in 0.2% BSA) was performed for 30 min at 37° C. To visualize filamentous actin, 1 unit Oregon-green phalloidin was included into the mixture. Coverstips were washed four times with PBS, once in water, air-dried and mounted in Moviol. Image acquisition was done with LSM 510 (Zeiss).
# (C) SRF-VP16 expression leads to increased stress fiber formation. […] ES cells were transiently transfected with SRF-VP16 (upper panel) and the SRF-M-VP16 control construct (lower panel) and processed for immunofluorescence analysis three days later. […]
# SRF-VP16 fusion proteins were previously used to drive SRF-dependent transcription independent of upstream signalling cascades (Hines et al., 1999; Johansen and Prywes, 1994;Treisman et al., 1992). […] Undifferentiated ES cells were transiently transfected with SRF-VP16 and SRF M-VP16 expression vectors, and RNA expression levels were measured by quantitative RT-PCR (FIG. 17B). […]
molecule,measurement,setting,value
"C[S+](C)[O-] [DMSO, dimethylsulfoxide]",timing of mesodermal marker gene induction versus LIF withdrawal alone,[1],earlier induction
B1,rescue of defective actin cytoskeleton,[2]; transient overexpression in Srf(−/−) ES cells,did not rescue the defective actin cytoskeleton
B2,effects on gene expression and cytoskeletal rearrangements,[2]; reintroduction by transient transfection,only minor effects
